The values below come from publication PMC8618880, “Discovery of GOT1 Inhibitors from a Marine-Derived Aspergillus terreus That Act against Pancreatic Ductal Adenocarcinoma” (Marine Drugs, 2021).

The data set deals with the molecule itself. Description: crystal structure; GOT1 (16 mg/mL) mixed with 40 uM AH, sitting-drop vapor diffusion, 18 °C, 0.1 M HEPES pH 7.5, 12% w/v PEG 3350; 2.6 Å; two subunits (chains A and B) form the dimer.

B1: glutamic oxaloacetate transaminase 1 (GOT1) (enzyme, human)
chain: PPSVFAEVPQAQPVLVFKLTADFREDPDPRKVNLGVGAYRTDDCHPWVLPVVKKVEQKIANDNSLNHEYLPILGLAEFRSCASRLALGDDSPALKEKRVGGVQSLGGTGALRIGADFLARWYNGTNNKNTPVYVSSPTWENHNAVFSAAGFKDIRSYRYWDAEKRGLDLQGFLNDLENAPEFSIVVLHACAHNPTGIDPTPEQWKQIASVMKHRFLFPFFDSAYQGFASGNLERDAWAIRYFVSEGFEFFCAQSFSKNFGLYNERVGNLTVVGKEPESILQVLSQMEKIVRITWSNPPAQGARIVASTLSNPELFEEWTGNVKTMADRILTMRSELRARLEALKTPGTWNHITDQIGMFSFTGLNPKQVEYLVNEKHIYLLPSGRINVSGLTTKNLDYVATSIHEAVTKIQ
modifications: in the crystal: C17 atom of AH covalently linked to the N atom of Lys259 in chain A; PLP in chain B
notes: GOT1, expression construct pET26b-got1; Domains described in the structure span residues 17-411; also called WT-GOT1; glutamic-oxaloacetic transaminase 1; source: E. coli BL21 (DE3), purified (HisTrap FF, Resource Q, Superdex200 Increase)
On to B1, for which the binding result was “binds”.
